B1: 57 (protein)
chain: LDNGLARTPTMGWLHWERFMCNLDCQEEPDSCISEKLFMEMAELMVSEGWKDAGYEYLCIDDCWMAPQRDSEGRLQADPQRFPHGIRQLANYVHSKGLKLGIYADVGNKTCAGFPGSFGYYDIDAQTFADWGVDLLKFDGCYCDSLENLADGYKHMSLALNRTGRSIVYSCEWPLYMWPFQKPNYTEIRQYCNHWRNFADIDDSWKSIKSILDWTSFNQERIVDVAGPGGWNDPDMLVIGNFGLSWNQQVTQMALWAIMAAPLFMSNDLRHISPQAKALLQDKDVIAINQDPLGKQGYQLRQGDNFEVWERPLSGLAWAVAMINRQEIGGPRSYTIAVASLGKGVACNPACFITQLLPVKRKLGKYEWTSRLRSHINPTGTVLLQLENTMQMSKDLLL
modifications: Synthetic Polypeptide sequence of Variant No. 57 of mature Human GLA
B2: 62 (protein)
chain: LDNGLARTPTMGWLHWERFMCNLDCQEEPDSCISEKLFMEMAELMVSEGWKDAGYEYLCIDDCWMAPQRDSEGRLQADPQRFPHGIRQLANYVHSKGLKLGIYADVGNKTCAGFPGSFGYYDIDAQTFADWGVDLLKFDGCYCDSLENLADGYKHMSLALNRTGRSIVYSCEWPLYMWPFQKPNYTEIRQYCNHWRNFADIDDSWKSIKSILDWTSFNQERIVDVAGPGGWNDPDMLVIGNFGLSWNQQVTQMALWAIMAAPLFMSNDLRHISPQAKALLQDKDVIAINQDPLGKQGYQLRQQDNFEVWERPLSGLAWAVAMINRQEIGGPRSYTIAVASLGKGVACNPACFITQLLPVKRKLGFYEWTSRLVSHINPTGTVLLQLENTMQMSKDLLL
modifications: Synthetic Polypeptide sequence of Variant No. 62 of mature Human GLA
B3: 61 (protein)
chain: LDNGLARTPTMGWLHWERFMCNLDCQEEPDSCISEKLFMEMAELMVSEGWKDAGYEYLCIDDCWMAPQRDSEGRLQADPQRFPHGIRQLANYVHSKGLKLGIYADVGNKTCAGFPGSFGYYDIDAQTFADWGVDLLKFDGCYCDSLENLADGYKHMSLALNRTGRSIVYSCEWPLYMWPFQKPNYTEIRQYCNHWRNFADIDDSWKSIKSILDWTSFNQERIVDVAGPGGWNDPDMLVIGNFGLSWNQQVTQMALWAIMAAPLFMSNDLRHISPQAKALLQDKDVIAINQDPLGKQGYQLRQGDNFEVWERPLSGLAWAVAMINRQEIGGPRSYTIAVASLGKGVACNPACFITQLLPVKRKLGVYEWTSRLRSHINPTGTVLLQLENTMQMSKDLLL
modifications: Synthetic Polypeptide sequence of Variant No. 61 of mature Human GLA
B4: 60 (protein)
chain: LDNGLARTPTMGWLHWERFMCNLDCQEEPDSCISEKLFMEMAELMVSEGWKDAGYEYLCIDDCWMAPQRDSEGRLQADPQRFPHGIRQLANYVHSKGLKLGIYADVGNKTCAGFPGSFGYYDIDAQTFADWGVDLLKFDGCYCDSLENLADGYKHMSLALNRTGRSIVYSCEWPLYMWPFQKPNYTEIRQYCNHWRNFADIDDSWKSIKSILDWTSFNQERIVDVAGPGGWNDPDMLVIGNFGLSWNQQVTQMALWAIMAAPLFMSNDLRHISPQAKALLQDKDVIAINQDPLGKQGYQLRQGDNFEVWERPLSGLAWAVAMINRQEIGGPRSYTIAVASLGKGVACNPACFITQLLPVKRKLGTYEWTSRLRSHINPTGTVLLQLENTMQMSKDLLL
modifications: Synthetic Polypeptide sequence of Variant No. 60 of mature Human GLA
B5: 59 (protein)
chain: LDNGLARTPTMGWLHWERFMCNLDCQEEPDSCISEKLFMEMAELMVSEGWKDAGYEYLCIDDCWMAPQRDSEGRLQADPQRFPHGIRQLANYVHSKGLKLGIYADVGNKTCAGFPGSFGYYDIDAQTFADWGVDLLKFDGCYCDSLENLADGYKHMSLALNRTGRSIVYSCEWPLYMWPFQKPNYTEIRQYCNHWRNFADIDDSWKSIKSILDWTSFNQERIVDVAGPGGWNDPDMLVIGNFGLSWNQQVTQMALWAIMAAPLFMSNDLRHISPQAKALLQDKDVIAINQDPLGKQGYQLRQGDNFEVWERPLSGLAWAVAMINRQEIGGPRSYTIAVASLGKGVACNPACFITQLLPVKRKLGRYEWTSRLRSHINPTGTVLLQLENTMQMSKDLLL
modifications: Synthetic Polypeptide sequence of Variant No. 59 of mature Human GLA
B6: 63 (protein)
chain: LDNGLARTPTMGWLHWERFMCNLDCQEEPDSCISEKLFMEMAELMVSEGWKDAGYEYLCIDDCWMAPQRDSEGRLQADPQRFPHGIRQLANYVHSKGLKLGIYADVGNKTCAGFPGSFGYYDIDAQTFADWGVDLLKFDGCYCDSLENLADGYKAMSLALNRTGRSIVYSCEWPLYMWPFQKPNYTEIRQYCNHWRNFADIDDSWKSIKSILDWTSFNQERIVDVAGPGGWNDPDMLVIGNFGLSWNQQVTQMALWAIMAAPLFMSNDLRHISPQAKALLQDKDVIAINQDPLGKQGYQLRQGDNFEVWERPLSGLAWAVAMINRQEIGGPRSYTIAVASLGKGVACNPACFITQLLPVKRKLGFYEWTSRLRSHINPTGTVLLQLENTMQMSKDLLL
modifications: Synthetic Polypeptide sequence of Variant No. 63 of mature Human GLA
B7: 58 (protein)
chain: LDNGLARTPTMGWLHWERFMCNLDCQEEPDSCISEKLFMEMAELMVSEGWKDAGYEYLCIDDCWMAPQRDSEGRLQADPQRFPHGIRQLANYVHSKGLKLGIYADVGNKTCAGFPGSFGYYDIDAQTFADWGVDLLKFDGCYCDSLENLADGYKHMSLALNRTGRSIVYSCEWPLYMWPFQKPNYTEIRQYCNHWRNFADIDDSWKSIKSILDWTSFNQERIVDVAGPGGWNDPDMLVIGNFGLSWNQQVTQMALWAIMAAPLFMSNDLRHISPQAKALLQDKDVIAINQDPLGKQGYQLRQGDNFEVWERPLSGLAWAVAMINRQEIGGPRSYTIAVASLGKGVACNPACFITQLLPVKRKLGLYEWTSRLRSHINPTGTVLLQLENTMQMSKDLLL
modifications: Synthetic Polypeptide sequence of Variant No. 58 of mature Human GLA
B8: 64 (protein)
chain: LDNGLARTPTMGWLHWERFMCNLDCQEEPDSCISEKLFMEMAELMVSEGWKDAGYEYLCIDDCWMAPQRDSEGRLQADPQRFPHGIRQLANYVHSKGLKLGIYADVGNKTCAGFPGSFGYYDIDAQTFADWGVDLLKFDGCYCDSLENLADGYKLMSLALNRTGRSIVYSCEWPLYMWPFQKPNYTEIRQYCNHWRNFADIDDSWKSIKSILDWTSFNQERIVDVAGPGGWNDPDMLVIGNFGLSWNQQVTQMALWAIMAAPLFMSNDLRHISPQAKALLQDKDVIAINQDPLGKQGYQLRQGDNFEVWERPLSGLAWAVAMINRQEIGGPRSYTIAVASLGKGVACNPACFITQLLPVKRKLGFYEWTSRLRSHINPTGTVLLQLENTMQMSKDLLL
modifications: Synthetic Polypeptide sequence of Variant No. 64 of mature Human GLA

Columns and labels:
Type in all cases: biochemical
[1] = HTP-analysis of supernatants pretreated with acid (MUGal hydrolysis); details: challenge at pH 4.2; activity of the variant/activity of WT GLA (SEQ ID NO: 5); yeast supernatant
In short: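 Fluorescence of MUGal hydrolysis (Ex. 355 nm, Em. 448 nm) is read after sodium carbonate quench. The enzyme source is INVSc1 yeast culture supernatant, first exposed to pH 3.3-4.3 McIlvaine buffer at 37° C. for 1-3 h, then reacted at pH 4.8 for 30-180 minutes.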

[2] = HTP-analysis of yeast culture supernatants, no challenge (MUGal hydrolysis); details: activity of the variant/activity of WT GLA (SEQ ID NO: 5), yeast supernatant
In short: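 GLA variants were expressed in INVSc1 yeast grown in SD-Ura broth with glucose at 30° C., and culture supernatants were collected after 66-84 h. Supernatant was mixed with McIlvaine buffer pH 4.8 and MUGal (2 mM stock) in 50 mM citrate, 200 mM KCl, pH 4.6, incubated at 37° C. for 30-180 minutes, then quenched with sodium carbonate.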

[3] = HTP-analysis of supernatants pretreated with base (MUGal hydrolysis); details: challenge at pH 7.1; activity of the variant/activity of WT GLA (SEQ ID NO: 5); yeast supernatant
In short: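 GLA variants secreted from yeast INVSc1; culture supernatants pre-incubated with McIlvaine buffer pH 7.0–8.2 or 200 mM bicarbonate pH 9.1–9.7 at 37° C. for 1–18 h. Residual activity: MUGal (4 mM stock) hydrolysis at pH 4.3–4.8, 37° C., 30–180 min, carbonate quench; fluorescence Ex 355/Em 448 nm.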

Molecule	Relative Activity of GLA Variants After Challenge at pH 4.2 [1]	Relative Activity of GLA Variants After No Challenge (NC) [2]	Relative Activity of GLA Variants After Challenge at pH 7.1 [3]
B1	++ (++ = >1.5 to 2.5 relative activity over WT GLA (SEQ ID NO: 5))	++ (++ = >1.5 to 2.5 relative activity over WT GLA (SEQ ID NO: 5))	++ (++ = >1.5 to 2.5 relative activity over WT GLA (SEQ ID NO: 5))
B2	+ (+ = 0.5 to 1.5 relative activity over WT GLA (SEQ ID NO: 5))	++ (++ = >1.5 to 2.5 relative activity over WT GLA (SEQ ID NO: 5))	++ (++ = >1.5 to 2.5 relative activity over WT GLA (SEQ ID NO: 5))
B3	++ (++ = >1.5 to 2.5 relative activity over WT GLA (SEQ ID NO: 5))	++ (++ = >1.5 to 2.5 relative activity over WT GLA (SEQ ID NO: 5))	++ (++ = >1.5 to 2.5 relative activity over WT GLA (SEQ ID NO: 5))
B4	+ (+ = 0.5 to 1.5 relative activity over WT GLA (SEQ ID NO: 5))	+ (+ = 0.5 to 1.5 relative activity over WT GLA (SEQ ID NO: 5))	+ (+ = 0.5 to 1.5 relative activity over WT GLA (SEQ ID NO: 5))
B5	+ (+ = 0.5 to 1.5 relative activity over WT GLA (SEQ ID NO: 5))	+ (+ = 0.5 to 1.5 relative activity over WT GLA (SEQ ID NO: 5))	+ (+ = 0.5 to 1.5 relative activity over WT GLA (SEQ ID NO: 5))
B6	+ (+ = 0.5 to 1.5 relative activity over WT GLA (SEQ ID NO: 5))	+ (+ = 0.5 to 1.5 relative activity over WT GLA (SEQ ID NO: 5))	++ (++ = >1.5 to 2.5 relative activity over WT GLA (SEQ ID NO: 5))
B7	++ (++ = >1.5 to 2.5 relative activity over WT GLA (SEQ ID NO: 5))	++ (++ = >1.5 to 2.5 relative activity over WT GLA (SEQ ID NO: 5))	++ (++ = >1.5 to 2.5 relative activity over WT GLA (SEQ ID NO: 5))
B8	+ (+ = 0.5 to 1.5 relative activity over WT GLA (SEQ ID NO: 5))	+ (+ = 0.5 to 1.5 relative activity over WT GLA (SEQ ID NO: 5))	++ (++ = >1.5 to 2.5 relative activity over WT GLA (SEQ ID NO: 5))

— patent publication US11278600B2, “Human alpha-galactosidase variants” (Codexis, Inc., priority 2014, dated 2022)
